Data from patent US12391751B2, “Antibody against advanced glycation end products and use thereof” (Bloom Technology Corporation, priority 2018, dated 2025).

Legend:
[1] = Reactivity of SJ-5 with GLAP by competitive ELISA (Example 13); type: binding; conditions: immobilized Glycer-AGEs-BSA
Experimental: A solution of BSA containing AGEs derived from glyceraldehyde (stock solution: 10 mg/mL PBS solution) prepared into 1 μg/mL in a coating solution was added at 100 μL/well to a 96-well microtiter plate (COSTAR) and incubated overnight at 4° C.
Each well after the immobilization treatment was washed three times with a washing solution (300 μL), and a blocking solution (200 μL) was added thereto and left at room temperature for 1 hour.
GAL13 (prepared in Example 2), GLAP (prepared in Example 12), and Z-Lys-OH (Tokyo Chemical Industry Co., Ltd.) were each dissolved in a phosphate buffer solution (0.2 M, pH 7.4) to prepare a 20 mg/mL solution. Sample solutions of 2-fold dilution series from 0.0063 to 2 mg/mL (6 points) were further prepared by dilution with a diluting solution. A POD-labeled novel monoclonal antibody (SJ-5) solution was diluted 16,000-fold with a diluting solution containing BSA (1 mg/mL, FUJIFILM Wako Pure Chemical Corp.) to prepare a POD-labeled SJ-5 antibody dilution solution. […]
Absorbance was measured at a dominant wavelength of 450 nm and a sub-wavelength of 650 nm with a microplate reader (Cytation 5, BioTek Instrument Inc.), and the absorbance at the sub-wavelength was subtracted from the absorbance at the dominant wavelength.

[2] = test system: retinal pigment epithelial cells (ARPE-19 cells); experiment: Tight junction breakdown suppression test, impedance by xCELLigence (Example 34); type: cell-based
Experimental: FBS (FUJIFILM Wako Pure Chemical Corp.) was added at 10% to D-MEM (FUJIFILM Wako Pure Chemical Corp.), and penicillin-streptomycin (Nacalai Tesque, Inc.) was added at 1% thereto to prepare DMEM medium. ARPE-19 cells (ATCC) were cultured in the DMEM medium using a 10 cm dish (Corning Inc.).
xCELLigence RTCA DP system (ACEA Biosciences, Inc.) was installed in a CO2 incubator and used in a state loaded overnight or longer after the installation for stabilization. Immediately before cell preparation, DMEM medium was added at 50 μL/well to E-plate (ACEA Biosciences, Inc.), and a background was measured.
The medium was removed from the ARPE-19 cells cultured in (1) described above, which were then washed by repeating the addition and removal of 10 mL of PBS(−) (FUJIFILM Wako Pure Chemical Corp.) twice. 1 mL of trypsin-EDTA (FUJIFILM Wako Pure Chemical Corp.) was added thereto, and the cells were dispersed by incubation in a CO2 incubator (Taitec Corp.) at 37° C. for 3 minutes. Then, the activity of trypsin was neutralized by the addition of 10 mL of DMEM medium. The neutralized cell dispersion was transferred to a 50 mL tube (Falcon) and centrifuged at 1500 rpm for 5 minutes using a centrifuge (Kubota Corp.). Then, the supernatant was discarded, and the precipitates were resuspended in 1 mL of DMEM medium. A 10 μL aliquot of the resuspended cell dispersion was mixed with 10 μL of Trypan Blue (NanoEnTek Inc.), and 10 μL thereof was added to a counting chamber (NanoEnTek Inc.). Then, the number of live cells was counted in Auto Cell Counter EVE (NanoEnTek Inc.). The cell suspension was diluted into 4.0×10^5 cells/mL with DMEM medium and inoculated at 80 μL/well to E-plate (ACEA Biosciences, Inc.).
The impedance of the plate was measured every 15 minutes using the xCELLigence RTCA DP system to confirm the adhesion of the cells to the plate. […] After the addition, the impedance was also measured every 15 minutes.
The impedance was measured 10 to 12 hours after the addition of A-peak-BSA and normalized to that of the A-peak-BSA addition group defined as 0.

[3] = target: T1, GAL13-BSA (Bos taurus, UniProt P02769); experiment: Reactivity of novel monoclonal antibody by competitive ELISA (Example 6); type: binding
T1 construct: purchased Sigma-Aldrich Co. LLC
T1 sequence (P02769 25-607): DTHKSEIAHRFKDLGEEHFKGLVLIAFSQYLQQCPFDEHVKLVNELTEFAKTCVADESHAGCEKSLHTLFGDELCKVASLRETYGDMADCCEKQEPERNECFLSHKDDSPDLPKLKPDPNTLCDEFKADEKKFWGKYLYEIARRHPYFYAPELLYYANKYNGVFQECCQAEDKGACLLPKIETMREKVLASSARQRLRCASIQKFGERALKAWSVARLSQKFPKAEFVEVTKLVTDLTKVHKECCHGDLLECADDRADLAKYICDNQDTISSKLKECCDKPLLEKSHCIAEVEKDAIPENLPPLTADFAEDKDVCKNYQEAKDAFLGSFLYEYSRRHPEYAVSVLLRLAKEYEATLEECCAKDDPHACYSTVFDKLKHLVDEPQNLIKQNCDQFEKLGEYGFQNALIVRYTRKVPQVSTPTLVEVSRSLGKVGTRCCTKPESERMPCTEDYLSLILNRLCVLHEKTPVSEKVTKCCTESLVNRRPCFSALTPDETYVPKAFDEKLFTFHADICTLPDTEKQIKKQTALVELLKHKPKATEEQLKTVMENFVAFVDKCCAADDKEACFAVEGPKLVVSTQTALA
Experimental: GAL13-BSA was added at 100 μL/well with a concentration of 1 μg/mL and immobilized overnight at 4° C. The plate was washed three times with PBS containing 0.05% (v/v) Tween 20 (PBS-T) and then blocked with a carbonate buffer solution (pH 9.5) containing 0.5% (w/v) gelatin for 1 hour. After preparation of a POD-labeled SJ-5 antibody (0.4 μg/mL) and an anti-glyceraldehyde-derived AGEs polyclonal antibody (6 μg/mL) as a control, 10-fold serial dilution solutions (50 μL each) of GAL13-BSA or control BSA and the POD-labeled SJ-5 antibody or the anti-glyceraldehyde-derived AGEs polyclonal antibody as a control (50 μL) were added to the antigen-immobilized plate, stirred with a plate mixer, and then left standing at room temperature for 1 hour. After washing, an o-phenylenediamine solution (100 μL) prepared into 0.5 mg/mL with a 0.1 M citrate-phosphate buffer solution (pH 5.0) containing 0.02% (w/v) hydrogen peroxide was added to each well and left standing at 25° C. for 10 minutes. Then, color reaction was terminated by the addition of a 1 M sulfuric acid solution (50 μL) to each well. Then, absorbance at 490 nm was measured with a microplate reader.

B1: SJ-5: mouse monoclonal antibody raised against GAL13-MSA; heavy-chain variable region SEQ ID NO 4, light-chain variable region SEQ ID NO 8 (antibody, listed as Mus musculus, V domains shown)
VH: EVMLVESGGRLVKPGGSLKLSCAASGFTFSSYGMSWVRQTPEKRLEWVATISGGGSYTYYPDSVKGRFTISRDNVKNNLYLQMSSLRSEDTALYYCARRGAYGDYGWFAYWGQGTLVTVSA
VL: DIVLTQSPATLSVTPGDSVSLSCRASQSINNNLHWYQQKSHESPRLLIKCASQSISGIPSRFSGSGSGTDFTLSINSVETEDFGMYFCQQSNSWPLTFGAGTKLELK
- recognition of GLAP [1]: does not recognize
- suppression of A-peak-BSA-induced reduction in impedance ([2]; SJ-5 final concentration of 1 mg/mL): suppression of the reduction was found
- antibody concentration giving similar results, lower than that of the polyclonal antibody ([3]; competitive ELISA, versus anti-glyceraldehyde-derived AGEs polyclonal antibody): 15 times
- reactivity with GAL13-BSA in the competitive method ([3]; immobilized GAL13-BSA, POD-labeled SJ-5 0.4 μg/mL, polyclonal antibody 6 μg/mL): react favorably

B2: PB-1: mouse monoclonal antibody raised against A-peak-BSA; heavy-chain variable region SEQ ID NO 18, light-chain variable region SEQ ID NO 22 (antibody, listed as Mus musculus, V domains shown)
VH: EVRLQQSGPELVKPGTSVKISCKASGYSFTGYYMHWVKQSPVKSLEWIGRIIPYNGATSYNQNFKDKASLTVDKSSRTAYMDLHSLTSEDSAVYYCARSRYYGRAPYYFDYWGQGTTLTVSS
VL: DVVVTQTPLSLPVSLGDQASISCRSSQSIVHSNGNTYLEWYLQKPGQSPKLLIYKVSNRFSGVPDRISGSGSGTDFTLKISRVEAGDLGVYSCFQGSHVPFTFGSGTKLEIK
- suppression of A-peak-BSA-induced reduction in impedance ([2]; 9 μL of PB-1 at 10, 3, 1 or 0.3 mg/mL): significantly suppressed
- suppression of reduction in impedance compared with SJ-5 antibody ([2]; PB-1 even in a lower concentration region): stronger suppression than that by the SJ-5 antibody
